Assays:
[1] = test system: Gal4(1-147) (Saccharomyces cerevisiae); test: ensemble FRET titration; settings: FRET (Gal4): 130 mM NaCl, 10 mM Tris-HCl pH 8, 0.01% Tween 20, 10% glycerol, 0.5 nM substrate, PIFE (LexA): 130 mM NaCl, 10 mM Tris pH 8, 10% glycerol, 0.005% …
LexA = test: PIFE titration; settings: FRET (Gal4): 130 mM NaCl, 10 mM Tris-HCl pH 8, 0.01% Tween 20, 10% glycerol, 0.5 nM substrate, PIFE (LexA): 130 mM NaCl, 10 mM Tris pH 8, 10% glycerol, 0.005% …

Question: With “601-Gal4-S hexasome (H2A-H2B proximal to Gal4 site)” as the substance, how does the K half ([1]; hexasome, dimer-proximal site, smFRET kon 0.0052 s-1 nM-1, koff 0.37 s-1) read?
Answer: 47 nM

Question: Which K half (LexA; hexasome, dimer-distal site) does the source give for “601-LexA-W hexasome (H2A-H2B distal LexA site)” here?
Answer: 0.25 nM

Question: How did the K half (LexA; naked DNA, Cy5-aminoC6-dT internal in reverse strand) turn out when DNA-LexA was run?
Answer: 0.3 nM

Question: For 601-Gal4-S nucleosome, which K half ([1]; nucleosome, smFRET kon 0.011 s-1 nM-1, koff 0.32 s-1) is on record?
Answer: 19.6 nM
